Measured values published in publication PMC3317646, “Interaction of Chandipura Virus N and P Proteins: Identification of Two Mutually Exclusive Domains of N Involved in Interaction with P” (PLoS ONE, 2012).
Read-outs that look alike come from different tables or passages of the source.

T1: N(1/180–265/422), bacterially expressed (Chandipura virus, UniProt P11211 1-422, N(1/180–265/422))
T1 construct: also called middle deletant; source: E. coli BL21(DE3) or BL21(DE3)pLysS, purified (anion exchange, MonoQ 5/50 GL)
T1 sequence: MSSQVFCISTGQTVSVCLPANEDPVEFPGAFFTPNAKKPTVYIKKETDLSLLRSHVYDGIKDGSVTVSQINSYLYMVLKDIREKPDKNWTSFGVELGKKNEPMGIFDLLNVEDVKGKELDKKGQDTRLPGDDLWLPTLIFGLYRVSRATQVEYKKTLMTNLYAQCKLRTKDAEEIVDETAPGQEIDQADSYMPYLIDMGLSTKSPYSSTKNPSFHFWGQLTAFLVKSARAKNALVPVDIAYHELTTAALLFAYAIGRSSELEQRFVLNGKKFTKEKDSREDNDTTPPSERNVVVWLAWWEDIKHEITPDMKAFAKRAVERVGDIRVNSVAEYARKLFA

T2: N(1–390), bacterially expressed (Chandipura virus, UniProt P11211 1-390)
T2 construct: Chandipura virus nucleocapsid protein N, residues 1-390; source: E. coli BL21(DE3) or BL21(DE3)pLysS, purified (anion exchange, MonoQ 5/50 GL)
T2 sequence: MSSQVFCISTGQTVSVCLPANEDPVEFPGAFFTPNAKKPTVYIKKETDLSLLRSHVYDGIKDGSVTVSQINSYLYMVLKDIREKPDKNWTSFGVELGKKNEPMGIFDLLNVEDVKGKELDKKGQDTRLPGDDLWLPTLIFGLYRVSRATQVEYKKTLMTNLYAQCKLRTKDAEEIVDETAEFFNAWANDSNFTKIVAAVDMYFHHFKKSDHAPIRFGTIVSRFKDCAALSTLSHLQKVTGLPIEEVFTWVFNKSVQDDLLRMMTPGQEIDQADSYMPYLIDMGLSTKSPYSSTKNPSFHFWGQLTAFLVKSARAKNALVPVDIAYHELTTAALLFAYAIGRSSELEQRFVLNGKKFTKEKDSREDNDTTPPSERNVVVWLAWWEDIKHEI

T3: N(22–422), bacterially expressed (Chandipura virus, UniProt P11211 22-422)
T3 construct: source: E. coli BL21(DE3) or BL21(DE3)pLysS, purified (anion exchange, MonoQ 5/50 GL)
T3 sequence: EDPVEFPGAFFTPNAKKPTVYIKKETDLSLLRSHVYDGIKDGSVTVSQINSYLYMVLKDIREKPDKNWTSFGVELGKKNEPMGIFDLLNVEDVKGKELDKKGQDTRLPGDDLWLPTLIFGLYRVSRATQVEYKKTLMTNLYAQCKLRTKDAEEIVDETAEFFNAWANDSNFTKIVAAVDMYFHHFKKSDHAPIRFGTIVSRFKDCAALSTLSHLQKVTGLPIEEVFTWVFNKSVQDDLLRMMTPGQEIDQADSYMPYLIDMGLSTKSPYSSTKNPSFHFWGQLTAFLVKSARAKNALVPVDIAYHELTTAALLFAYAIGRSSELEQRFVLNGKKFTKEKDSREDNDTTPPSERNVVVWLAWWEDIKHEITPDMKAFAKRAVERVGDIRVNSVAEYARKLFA

T4: N(48–422), bacterially expressed (Chandipura virus, UniProt P11211 48-422)
T4 construct: source: E. coli BL21(DE3) or BL21(DE3)pLysS, purified (anion exchange, MonoQ 5/50 GL)
T4 sequence: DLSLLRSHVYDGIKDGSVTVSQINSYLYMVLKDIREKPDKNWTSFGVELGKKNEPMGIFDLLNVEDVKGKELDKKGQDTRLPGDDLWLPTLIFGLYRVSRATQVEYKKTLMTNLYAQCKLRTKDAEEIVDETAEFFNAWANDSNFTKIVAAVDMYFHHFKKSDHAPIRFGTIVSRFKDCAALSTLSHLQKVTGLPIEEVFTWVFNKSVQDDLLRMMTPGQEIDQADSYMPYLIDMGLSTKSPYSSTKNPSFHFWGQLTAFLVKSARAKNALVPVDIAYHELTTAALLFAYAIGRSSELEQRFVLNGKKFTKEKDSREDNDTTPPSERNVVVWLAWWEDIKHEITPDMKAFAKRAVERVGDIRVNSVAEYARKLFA

T5: Chandipura virus phosphoprotein (P), wild-type, untagged, bacterially expressed (Chandipura virus, UniProt P16380 1-293)
T5 construct: Chandipura virus phosphoprotein P, wild-type (pET3a-P); also called CHPV P; pET3a-P; source: bacterially expressed, purified (Q-Sepharose anion exchange)
T5 sequence: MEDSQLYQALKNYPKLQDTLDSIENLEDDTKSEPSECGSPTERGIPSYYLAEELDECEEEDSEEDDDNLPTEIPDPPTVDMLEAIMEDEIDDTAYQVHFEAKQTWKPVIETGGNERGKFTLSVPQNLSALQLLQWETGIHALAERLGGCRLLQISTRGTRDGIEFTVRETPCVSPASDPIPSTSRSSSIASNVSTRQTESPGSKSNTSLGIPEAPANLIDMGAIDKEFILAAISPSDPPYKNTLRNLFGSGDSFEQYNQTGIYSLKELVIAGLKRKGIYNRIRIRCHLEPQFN

B1: N(1–220), bacterially expressed (domain or fragment)
chain: MSSQVFCISTGQTVSVCLPANEDPVEFPGAFFTPNAKKPTVYIKKETDLSLLRSHVYDGIKDGSVTVSQINSYLYMVLKDIREKPDKNWTSFGVELGKKNEPMGIFDLLNVEDVKGKELDKKGQDTRLPGDDLWLPTLIFGLYRVSRATQVEYKKTLMTNLYAQCKLRTKDAEEIVDETAEFFNAWANDSNFTKIVAAVDMYFHHFKKSDHAPIRFGTIV
notes: Chandipura virus nucleocapsid protein N, residues 1-220; source: E. coli BL21(DE3) or BL21(DE3)pLysS, purified (anion exchange, MonoQ 5/50 GL)
B2: N-terminal six histidine tagged P protein of Chandipura virus (His-P) (natural protein)
chain: T5 sequence
notes: Chandipura virus phosphoprotein P, full length (pET20b-P); pET20b usually adds a C-terminal His tag (surmise); also called 6×His-P; pET20b-P; source: bacterially expressed, purified (Ni-NTA agarose); not shown: His6, N-terminal, kept
B3: Chandipura virus nucleocapsid protein (N), wild-type, untagged, bacterially expressed (natural protein)
chain: MSSQVFCISTGQTVSVCLPANEDPVEFPGAFFTPNAKKPTVYIKKETDLSLLRSHVYDGIKDGSVTVSQINSYLYMVLKDIREKPDKNWTSFGVELGKKNEPMGIFDLLNVEDVKGKELDKKGQDTRLPGDDLWLPTLIFGLYRVSRATQVEYKKTLMTNLYAQCKLRTKDAEEIVDETAEFFNAWANDSNFTKIVAAVDMYFHHFKKSDHAPIRFGTIVSRFKDCAALSTLSHLQKVTGLPIEEVFTWVFNKSVQDDLLRMMTPGQEIDQADSYMPYLIDMGLSTKSPYSSTKNPSFHFWGQLTAFLVKSARAKNALVPVDIAYHELTTAALLFAYAIGRSSELEQRFVLNGKKFTKEKDSREDNDTTPPSERNVVVWLAWWEDIKHEITPDMKAFAKRAVERVGDIRVNSVAEYARKLFA
notes: Chandipura virus nucleocapsid protein N, full-length untagged (pET3a-NC); Oligomeric (nucleocapsid-like rings) as purified; monomeric after 1% DOC; also called CHPV N; wild-type N
B4: N(1–320), bacterially expressed (domain or fragment)
chain: MSSQVFCISTGQTVSVCLPANEDPVEFPGAFFTPNAKKPTVYIKKETDLSLLRSHVYDGIKDGSVTVSQINSYLYMVLKDIREKPDKNWTSFGVELGKKNEPMGIFDLLNVEDVKGKELDKKGQDTRLPGDDLWLPTLIFGLYRVSRATQVEYKKTLMTNLYAQCKLRTKDAEEIVDETAEFFNAWANDSNFTKIVAAVDMYFHHFKKSDHAPIRFGTIVSRFKDCAALSTLSHLQKVTGLPIEEVFTWVFNKSVQDDLLRMMTPGQEIDQADSYMPYLIDMGLSTKSPYSSTKNPSFHFWGQLTAFLVKSARAKNALVP
notes: Chandipura virus nucleocapsid protein N, residues 1-320; also called N(1–320)^0 (monomer after DOC treatment); source: E. coli BL21(DE3) or BL21(DE3)pLysS, purified (anion exchange, MonoQ 5/50 GL)

Experiments:
[1] = target: the molecule itself; experiment: SEC; each purified protein alone on Superdex-200 / S-200 (10/300), 100 mM NaCl TET buffer; oligomerization status from the elution volume
[2] = target: B2; experiment: pull-down; His-tag co-elution after 1% DOC treatment of the N variants and dialysis against the binding buffer in presence of His-P (N variants monomeric); Ni-NTA agarose, eluted with 250 mM imidazole; conditions: both partners purified
[3] = target: T1, N(1/180–265/422), bacterially expressed; experiment: as above; conditions: both partners purified
[4] = target: B4; experiment: as above; conditions: both partners purified
[5] = target: B3; experiment: pull-down; His-tag co-elution: N proteins not treated with DOC incubated with 6×His-P in 50 mM Tris-Cl pH 8, 100 mM NaCl, 0.1% Triton X-100, 10 mM imidazole, 30 min at 4°C; bound to Ni-NTA agarose, eluted with 250 mM imidazole; conditions: both partners purified
[6] = target: T2, N(1–390), bacterially expressed; experiment: as above; conditions: both partners purified
[7] = target: T3, N(22–422), bacterially expressed; experiment: as above; conditions: both partners purified
[8] = target: T4, N(48–422), bacterially expressed; experiment: as above; conditions: both partners purified
[9] = target: the molecule itself; experiment: SEC; each purified protein alone on Superdex-200 / S-200 (10/300), 100 mM NaCl TET buffer; oligomerization status from the elution volume; remark: listed apart in the source
[10] = target: T5, Chandipura virus phosphoprotein (P), …; experiment: SEC; equimolar N (or N(1–320)) and P incubated 30 min at 4°C in 100 mM NaCl TET buffer, no DOC treatment (N oligomeric); S-200 (10/300); ratio by densitometry of bands; conditions: both partners purified
[11] = target: T5, Chandipura virus phosphoprotein (P), …; experiment: SEC; N (or N(1–320)) pre-treated with 1% DOC for 30 min, then DOC removed by overnight dialysis against 100 mM NaCl TET buffer with or without equimolar P; S-200 (10/300); ratio by densitometry of bands; conditions: both partners purified

B1
stoichiometry N [1]: 4 | binding result [2]: binds

B2
binding result [3]: binds | binding result [4]: binds | binding result [5]: binds | binding result [6]: binds | binding result [7]: binds | binding result [8]: binds

B3
stoichiometry N [9]: ~10 | stoichiometry N [10]: 2 N:P (molar ratio)

B4
stoichiometry N [1]: 8 | stoichiometry N [11]: 1 N(1–320):P
